For data set [1], the target named is NisC (lantibiotic cyclase) (Lactococcus lactis) (UniProt Q03202). Kind of data set: SEC-MALS; 20 μM NisC or 20 μM NisB incubated with 200 μM unmodified prenisin peptide for 1 h at 25 °C; 50 mM HEPES-NaOH, pH 7.5, 500 mM NaCl.
The target in data set [2] is NisB (lantibiotic dehydratase) (Lactococcus lactis) (UniProt P20103). The data set is described as above.
Data set [3] deals with NisC (lantibiotic cyclase) (Lactococcus lactis) (UniProt Q03202). Nature of the data set: SEC-MALS; 20 μM NisB and 200 μM prenisin peptide variant kept constant, NisC varied from 10 μM to 160 μM; 50 mM HEPES-NaOH, pH 7.5, 500 mM NaCl. On the technique in general: SEC sorts molecules by how far they enter the pores of the column.
Data set [4] concerns the target NisB (lantibiotic dehydratase) (Lactococcus lactis) (UniProt P20103). The data set is described as above.
Data set [5] deals with the molecule itself. Nature of the data set: SEC-MALS; isolated NisB or NisC, 200 μL of a 20 μM solution; 50 mM HEPES-NaOH, pH 7.5, 500 mM NaCl.

Chain of NisC (lantibiotic cyclase) (Lactococcus lactis) (Q03202 whole entry): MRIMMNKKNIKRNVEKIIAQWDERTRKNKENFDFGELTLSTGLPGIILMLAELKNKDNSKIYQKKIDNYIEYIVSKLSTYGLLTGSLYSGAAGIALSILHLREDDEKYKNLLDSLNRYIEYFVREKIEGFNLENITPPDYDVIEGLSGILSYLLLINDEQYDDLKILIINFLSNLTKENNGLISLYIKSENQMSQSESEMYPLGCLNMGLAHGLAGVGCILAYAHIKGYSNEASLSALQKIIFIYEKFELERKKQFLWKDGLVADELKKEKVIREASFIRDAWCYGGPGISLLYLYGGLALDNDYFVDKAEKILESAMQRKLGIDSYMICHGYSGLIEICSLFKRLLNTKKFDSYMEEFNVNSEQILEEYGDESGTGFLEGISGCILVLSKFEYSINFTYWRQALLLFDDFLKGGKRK

Turning to unmodified prenisin peptide, the stoichiometry N (per NisC monomer) in data set [1] worked out at 1. The molecule also had a stoichiometry N (per NisB dimer) in data set [2] of 1. In data set [3], the stoichiometry N (prenisin per NisC monomer) was found to be 1. This molecule displayed a stoichiometry N (prenisin per NisB dimer) in data set [4] of 1.

B1: NisB (lantibiotic dehydratase) (enzyme, Lactococcus lactis)
chain: MIKSSFKAQPFLVRNTILCPNDKRSFTEYTQVIETVSKNKVFLEQLLLANPKLYDVMQKYNAGLLKKKRVKKLFESIYKYYKRSYLRSTPFGLFSETSIGVFSKSSQYKLMGKTTKGIRLDTQWLIRLVHKMEVDFSKKLSFTRNNANYKFGDRVFQVYTINSSELEEVNIKYTNVYQIISEFCENDYQKYEDICETVTLCYGDEYRELSEQYLGSLIVNHYLISNLQKDLLSDFSWNTFLTKVEAIDEDKKYIIPLKKVQKFIQEYSEIEIGEGIEKLKEIYQEMSQILENDNYIQIDLISDSEINFDVKQKQQLEHLAEFLGNTTKSVRRTYLDDYKDKFIEKYGVDQEVQITELFDSTFGIGAPYNYNHPRNDFYESEPSTLYYSEEEREKYLSMYVEAVKNHNVINLDDLESHYQKMDLEKKSELQGLELFLNLAKEYEKDIFILGDIVGNNNLGGASGRFSALSPELTSYHRTIVDSVERENENKEITSCEIVFLPENIRHANVMHTSIMRRKVLPFFTSTSHNEVLLTNIYIGIDEKEKFYARDISTQEVLKFYITSMYNKTLFSNELRFLYEISLDDKFGNLPWELIYRDFDYIPRLVFDEIVISPAKWKIWGRDVNSKMTIRELIQSKEIPKEFYIVNGDNKVYLSQKNPLDMEILESAIKKSSKRKDFIELQEYFEDENIINKGEKGRVADVVVPFIRTRALGNEGRAFIREKRVSVERREKLPFNEWLYLKLYISINRQNEFLLSYLPDIQKIVANLGGNLFFLRYTDPKPHIRLRIKCSDLFLAYGSILEILKRSRKNRIMSTFDISIYDQEVERYGGFDTLELSEAIFCADSKIIPNLLTLIKDTNNDWKVDDVSILVNYLYLKCFFQNDNKKILNFLNLVSTKKVKENVNEKIEHYLKLLKVNNLGDQIFYDKNFKELKHAIKNLFLKMIAQDFELQKVYSIIDSIIHVHNNRLIGIERDKEKLIYYTLQRLFVSEEYMK
notes: Nisin dehydratase NisB of Lactococcus lactis; theoretical molecular weight of the dimer 236.6 kDa; Dimer by MALS-SEC and SAXS; also called dehydratase NisB; apo-NisB; source: L. lactis NZ9000, homologously expressed, purified (IMAC, SEC)
As a reminder, the stoichiometry N is the number of molecules, sites or subunits per partner or assembly. For the molecule B1, the “stoichiometry N” value in data set [5] came to 2.

The values above are taken from article PMC5294574, “Stoichiometry and structure of a lantibiotic maturation complex” (Scientific Reports, 2017).
